By stoichiometry N is commonly meant the number of molecules, sites or subunits per partner or assembly.

This is an account of results in publication PMC5585171.

The target of this test is Medicago truncatula L-histidinol dehydrogenase (Medicago truncatula). The test is described as follows: SEC; HiLoad Superdex 200 16/60; 25 mM Hepes-NaOH pH 7.5, 100 mM KCl, 50 mM NaCl, 1 mM TCEP; data not shown. A general note: In gel filtration, larger molecules generally elute earlier.

The substance “Medicago truncatula L-histidinol dehydrogenase (enzyme)” returned a stoichiometry N of 2.
